These results are taken from patent publication US8815527 (Stanford University, dated 2014).

Broadly, the Kd is the equilibrium constant for the complex coming apart. A high value points to lower affinity.

Experiment [1] concerns the target AKT phosphorylated at Ser473. The experiment in a line: flow cytometry, Jurkat T cells +PDGF, AKT+ gated; number stands under the right-hand population (ser473 stain about 50, thr308 stain about 50); one dotted box encloses both populations. On the technique in general: A flow cytometer gives signals particle by particle.
For experiment [2], the target named is p38 MAPK phosphorylated at Thr180/Tyr182. The experiment in a line: flow cytometry, Jurkat T cells +Anisomycin; gate around the population with phospho-p38 stain about 15 to 100.
Experiment [3] addresses T1, Leukocyte Function Antigen-1 (LFA-1) on the cell surface (human, UniProt P20701 26-1170; P05107 23-769). As to the kind of experiment: cell-based or functional assay.
Experiment [4] deals with T1, Leukocyte Function Antigen-1 (LFA-1) on …. As to the kind of experiment: flow cytometry, ICAM-2-FITC titration on Jurkat cells, single cell analysis. The procedure: Molecular weight was calculated using relative distance migration from a molecular weight standard. Concentration was determined using serial dilutions of BSA as a standard. […] Mean fluorescence intensity was plotted per time of a gated homogenous cell population. Flow rate was maintained at 200-300 cells/second, with fluorescence intensity values acquired at 10 millisecond intervals for 1200 seconds. […] Cells were washed 1×, and analyzed for mean fluorescent intensity (MFI) of 10^4 cells. […] Values were fit to the equation Y=m1*M0/(m2+M0) (see materials and methods).

Experiment [5] concerns the target β4 integrin (NIH3T3-derived cells) (UniProt A2A863 29-1818, limits assumed). As to the kind of experiment: two-column affinity chromatography (ICAM-2 solid support, then streptavidin-agarose) and immunoblot.
The target of the next experiment is ezrin in NIH3T3 cells (UniProt P26040 1-586). The experiment in a line: co-immunoprecipitation (IP ICAM-2, immunoblot ezrin) from transduced NIH3T3 cells. The text has this: Control lysates were not subjected to immunoprecipitation and reflect positive controls for detected interacting protein. […] Phosphotransfer of ATP to peptide substrate was detected by scintillation counting and presented as counts per minute CPM.
Background: Immunoblotting shows a protein as a band on a membrane.

T1 sequence (P20701 26-1170, chain 1 of 2): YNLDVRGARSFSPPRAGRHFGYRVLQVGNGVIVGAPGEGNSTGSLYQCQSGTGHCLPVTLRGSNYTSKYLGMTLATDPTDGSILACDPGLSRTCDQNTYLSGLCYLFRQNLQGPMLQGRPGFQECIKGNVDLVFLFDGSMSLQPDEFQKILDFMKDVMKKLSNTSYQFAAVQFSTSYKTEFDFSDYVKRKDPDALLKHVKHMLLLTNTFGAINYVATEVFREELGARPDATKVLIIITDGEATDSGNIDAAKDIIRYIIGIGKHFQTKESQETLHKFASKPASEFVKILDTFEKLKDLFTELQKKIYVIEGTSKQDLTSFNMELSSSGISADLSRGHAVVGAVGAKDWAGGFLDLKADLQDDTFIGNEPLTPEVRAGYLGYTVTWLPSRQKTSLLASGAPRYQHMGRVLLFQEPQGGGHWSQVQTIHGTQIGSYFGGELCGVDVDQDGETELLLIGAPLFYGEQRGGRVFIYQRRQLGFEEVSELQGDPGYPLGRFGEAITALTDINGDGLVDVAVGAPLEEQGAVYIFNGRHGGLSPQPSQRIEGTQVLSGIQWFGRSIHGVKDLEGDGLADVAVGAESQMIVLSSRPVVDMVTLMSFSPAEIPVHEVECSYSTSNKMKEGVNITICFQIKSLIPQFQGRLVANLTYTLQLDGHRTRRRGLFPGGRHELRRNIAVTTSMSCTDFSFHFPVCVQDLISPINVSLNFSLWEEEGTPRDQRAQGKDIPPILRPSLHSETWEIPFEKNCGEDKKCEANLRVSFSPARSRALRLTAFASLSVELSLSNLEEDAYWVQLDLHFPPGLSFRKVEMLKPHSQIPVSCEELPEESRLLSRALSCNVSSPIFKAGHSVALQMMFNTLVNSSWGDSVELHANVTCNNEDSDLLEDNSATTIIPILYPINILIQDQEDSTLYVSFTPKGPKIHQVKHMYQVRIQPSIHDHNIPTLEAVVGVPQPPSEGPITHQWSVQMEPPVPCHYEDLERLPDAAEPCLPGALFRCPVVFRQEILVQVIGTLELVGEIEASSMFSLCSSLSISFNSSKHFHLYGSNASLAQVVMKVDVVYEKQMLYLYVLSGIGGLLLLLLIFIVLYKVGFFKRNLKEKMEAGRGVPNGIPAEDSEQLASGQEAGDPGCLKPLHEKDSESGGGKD
T1 sequence (P05107 23-769, chain 2 of 2): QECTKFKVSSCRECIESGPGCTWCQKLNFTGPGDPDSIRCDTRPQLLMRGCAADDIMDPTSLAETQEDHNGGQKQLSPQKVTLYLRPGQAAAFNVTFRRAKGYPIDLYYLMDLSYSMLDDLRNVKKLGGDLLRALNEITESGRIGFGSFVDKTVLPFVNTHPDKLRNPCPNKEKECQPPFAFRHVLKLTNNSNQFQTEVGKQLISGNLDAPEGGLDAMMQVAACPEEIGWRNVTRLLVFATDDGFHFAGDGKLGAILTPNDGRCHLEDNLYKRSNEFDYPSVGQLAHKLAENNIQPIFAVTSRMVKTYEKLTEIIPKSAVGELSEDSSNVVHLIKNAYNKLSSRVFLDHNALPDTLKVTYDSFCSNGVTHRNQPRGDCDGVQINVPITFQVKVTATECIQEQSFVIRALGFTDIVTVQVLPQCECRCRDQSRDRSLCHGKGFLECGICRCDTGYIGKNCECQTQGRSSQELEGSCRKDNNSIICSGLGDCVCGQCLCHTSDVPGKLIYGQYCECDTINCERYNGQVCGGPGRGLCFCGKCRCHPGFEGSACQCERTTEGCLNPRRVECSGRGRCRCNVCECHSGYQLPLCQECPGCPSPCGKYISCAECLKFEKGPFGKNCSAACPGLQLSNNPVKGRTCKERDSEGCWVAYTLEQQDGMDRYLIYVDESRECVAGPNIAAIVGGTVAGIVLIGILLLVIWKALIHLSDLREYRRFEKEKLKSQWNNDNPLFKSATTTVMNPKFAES
ezrin in NIH3T3 cells, sequence (P26040 whole entry): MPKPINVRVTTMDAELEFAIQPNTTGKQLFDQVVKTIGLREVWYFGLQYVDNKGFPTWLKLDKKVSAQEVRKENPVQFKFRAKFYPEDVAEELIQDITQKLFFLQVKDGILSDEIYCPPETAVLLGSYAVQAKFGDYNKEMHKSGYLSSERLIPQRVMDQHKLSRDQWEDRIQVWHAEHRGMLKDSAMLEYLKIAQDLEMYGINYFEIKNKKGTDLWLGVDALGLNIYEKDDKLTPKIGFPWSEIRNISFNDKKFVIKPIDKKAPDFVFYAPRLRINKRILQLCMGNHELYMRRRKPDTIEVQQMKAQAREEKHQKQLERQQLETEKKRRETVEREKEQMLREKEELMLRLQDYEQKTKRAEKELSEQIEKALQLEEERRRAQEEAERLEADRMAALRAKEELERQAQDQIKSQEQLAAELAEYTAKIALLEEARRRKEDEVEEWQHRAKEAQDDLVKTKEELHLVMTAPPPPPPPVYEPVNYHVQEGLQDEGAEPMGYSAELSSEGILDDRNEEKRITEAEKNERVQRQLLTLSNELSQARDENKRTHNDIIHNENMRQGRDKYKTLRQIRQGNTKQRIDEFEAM
β4 integrin (NIH3T3-derived cells), sequence (A2A863 29-1818 limits assumed): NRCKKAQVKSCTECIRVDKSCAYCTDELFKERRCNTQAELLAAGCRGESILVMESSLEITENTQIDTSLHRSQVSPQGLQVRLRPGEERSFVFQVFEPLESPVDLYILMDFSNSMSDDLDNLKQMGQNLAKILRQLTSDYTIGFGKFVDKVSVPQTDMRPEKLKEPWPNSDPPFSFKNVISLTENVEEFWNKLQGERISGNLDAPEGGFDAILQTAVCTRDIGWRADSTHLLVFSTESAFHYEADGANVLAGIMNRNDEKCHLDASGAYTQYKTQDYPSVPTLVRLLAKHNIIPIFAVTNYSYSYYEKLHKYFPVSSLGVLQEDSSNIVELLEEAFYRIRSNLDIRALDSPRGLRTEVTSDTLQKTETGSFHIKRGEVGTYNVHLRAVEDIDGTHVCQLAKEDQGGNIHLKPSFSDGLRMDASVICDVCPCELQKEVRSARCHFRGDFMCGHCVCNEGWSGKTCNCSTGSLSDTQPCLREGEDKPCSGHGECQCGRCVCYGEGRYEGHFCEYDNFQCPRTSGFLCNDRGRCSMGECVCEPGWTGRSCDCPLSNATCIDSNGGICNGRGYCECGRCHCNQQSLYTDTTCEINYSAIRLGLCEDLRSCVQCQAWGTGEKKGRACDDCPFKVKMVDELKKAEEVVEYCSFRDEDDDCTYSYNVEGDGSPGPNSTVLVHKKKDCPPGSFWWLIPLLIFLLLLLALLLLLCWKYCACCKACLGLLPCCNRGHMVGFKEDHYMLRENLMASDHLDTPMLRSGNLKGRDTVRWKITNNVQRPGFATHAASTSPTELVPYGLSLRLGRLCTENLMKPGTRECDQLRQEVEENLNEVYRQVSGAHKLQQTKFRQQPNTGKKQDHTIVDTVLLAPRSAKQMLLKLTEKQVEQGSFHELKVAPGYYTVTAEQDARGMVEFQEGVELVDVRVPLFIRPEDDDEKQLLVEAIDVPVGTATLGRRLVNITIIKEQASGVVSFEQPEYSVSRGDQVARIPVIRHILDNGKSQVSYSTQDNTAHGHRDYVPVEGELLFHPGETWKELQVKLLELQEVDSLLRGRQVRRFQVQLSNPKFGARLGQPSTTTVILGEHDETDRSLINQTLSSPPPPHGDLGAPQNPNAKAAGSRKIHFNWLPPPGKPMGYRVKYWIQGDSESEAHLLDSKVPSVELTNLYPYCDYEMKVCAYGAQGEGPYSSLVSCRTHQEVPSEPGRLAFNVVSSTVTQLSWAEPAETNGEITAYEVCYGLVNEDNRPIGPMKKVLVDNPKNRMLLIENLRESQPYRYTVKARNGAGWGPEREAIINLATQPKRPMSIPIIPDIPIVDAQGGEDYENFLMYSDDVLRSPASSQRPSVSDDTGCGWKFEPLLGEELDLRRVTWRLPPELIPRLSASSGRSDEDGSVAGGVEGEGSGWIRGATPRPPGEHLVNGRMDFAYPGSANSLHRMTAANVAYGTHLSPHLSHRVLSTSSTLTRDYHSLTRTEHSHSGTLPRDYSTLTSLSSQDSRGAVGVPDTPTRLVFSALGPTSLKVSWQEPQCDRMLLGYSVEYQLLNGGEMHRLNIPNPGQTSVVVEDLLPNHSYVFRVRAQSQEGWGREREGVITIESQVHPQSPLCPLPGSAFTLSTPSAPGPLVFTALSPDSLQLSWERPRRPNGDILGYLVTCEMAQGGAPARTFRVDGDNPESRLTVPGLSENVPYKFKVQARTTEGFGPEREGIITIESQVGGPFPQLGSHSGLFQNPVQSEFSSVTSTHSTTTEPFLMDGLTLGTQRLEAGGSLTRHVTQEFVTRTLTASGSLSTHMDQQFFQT

On to “phospho-AKT Ser473 monoclonal antibody 4E2”, for which the percent of gated cells (number printed below the gate) in experiment [1] was found to be 43.9.

In experiment [2], “phospho-p38 MAP kinase (Thr180/Tyr182) monoclonal antibody 28B10” registered a percent of cells in the drawn gate (number printed beside the gate) of 13.3.

B1: soluble human ICAM-2 protein, biochemically purified from retrovirally transduced NIH3T3 cells (ligand, UniProt P13598 25-275, looked up)
chain: KVFEVHVRPKKLAVEPKGSLEVNCSTTCNQPEVGGLETSLDKILLDEQAQWKHYLVSNISHDTVLQCHFTCSGKQESMNSNVSVYQPPRQVILTLQPTLVAVGKSFTIECRVPTVEPLDSLTLFLFRGNETLHYETFGKAAPAPQEATATFNSTADREDGHRNFSCLAVLDLMSRGGNIFHKHSAPKMLEIYEPVSDSQMVIIVTVVSVLLSLFVTSVLLCFIFGQHLRQQRMGTYGVRAAWRRLPQAFRP
modifications: FITC (NHS-fluorescein) conjugate where used as ICAM-2-FITC, sites not stated
notes: mature; also called sICAM-2; soluble ICAM-2
B1: in experiment [3], the “stimulus needed for similar expression of CD69 and CD25 on naive CD4+ T cells, 6 hr” value was determined as 10000 fold. This molecule also showed a dissociation constant (Kd) in experiment [4] of 217 nM. The binding result in experiment [5] is “no binding”.

B2: human ICAM-2, full length, in cells (receptor, UniProt P13598 25-275, looked up)
chain: KVFEVHVRPKKLAVEPKGSLEVNCSTTCNQPEVGGLETSLDKILLDEQAQWKHYLVSNISHDTVLQCHFTCSGKQESMNSNVSVYQPPRQVILTLQPTLVAVGKSFTIECRVPTVEPLDSLTLFLFRGNETLHYETFGKAAPAPQEATATFNSTADREDGHRNFSCLAVLDLMSRGGNIFHKHSAPKMLEIYEPVSDSQMVIIVTVVSVLLSLFVTSVLLCFIFGQHLRQQRMGTYGVRAAWRRLPQAFRP
notes: whole, on cells; Used in co-immunoprecipitations from cell lysates, FACS staining and cell mixing assays; also called ICAM-2 cells; CD102
Consider B2, for which the binding result with ezrin in NIH3T3 cells is on record as “binds”.
